# Assay results taken from publication doi:10.1101/154823 (bioRxiv, 2017).
# T1: GDF8 growth factor dimer (human, UniProt O14793 267-375, disulfide-linked dimer)
# T1 sequence (looked up): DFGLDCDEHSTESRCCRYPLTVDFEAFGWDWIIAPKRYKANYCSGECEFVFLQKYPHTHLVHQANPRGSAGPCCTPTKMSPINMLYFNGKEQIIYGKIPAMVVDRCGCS
# B1: N-prodomain fragment of GDF8 (N-terminal 15 kDa TLD-cleaved prodomain fragment) (domain or fragment, human, UniProt O14793 24-98, looked up)
# chain: NENSEQKENVEKEGLCNACTWRQNTKSSRIEAIKIQILSKLRLETAPNISKDVIRQLLPKAPPLRELIDQYDVQR
# modifications: predicted N-linked glycan attachment site (printed as Asn-71 in the text, Asn48 in Figure 1A)
# Target: T1, GDF8 growth factor dimer
# Test: HDX-MS
binder,measurement,value
B1,binding result,binds
